Biological target: AlexaFluor594-tagged pre-formed fibrils (PFFs) of alpha-synuclein (UniProt P37840)
Experiment: two-colour coincidence detection (TCCD), single-molecule fluorescence; AF594-labelled α-SYN fibrils added to LTE expressing the N-GFP LB protein; fibrils at 1 µM (monomer-equivalent); stationary plate; 300 s traces, quadruplicate; Association Quotient Q

GABARAPL1 (from UniProt Q9H0R8 1-117) (natural protein)
relative presence of GFP species in the aggregates (fraction bound to fibrils): 0.14

Source: PMC8460662
